Substitutions are numbered along the chain they refer to.
B1: SC17.17: murine anti-SEZ6 antibody (antibody, V domains shown)
VH: EVQLQQSGPEVMKPGASVKMSCKASGYTFTDYNMHWVKQNQGKSLEWIGEINPNIGGTGYNQKFKGKATLTVHKSSSTAYMELRSLTSEDSAVYYCARTYSYYSYEFAYWGQGTLVTVSA
VL: QIVLTQSPAIMSASPGEKVTMTCSASSSVSYMHWYQQKSGTSPKRWIYDTSKLPSGVPARFSGSGSGTSYSLTISSMEAEDAATYYCQQWSSTPPTFGAGTKLELK
modifications: Murine SC17.17 VH; Murine SC17.17 VL
notes: murine anti-SEZ6 antibody
B2: SC17.28: murine anti-SEZ6 antibody (antibody, V domains shown)
VH: QVHLPQSRPELVKPGASVKISCKASGYGFTRSYIHWVKQRPGQGLEWIGYISSGSGGTTYNQKFKGKASLTADNPSSTAYMHLSSLTSEDSAIYFCARGGVRYFDVWGAGTTVTVSS
VL: DILLTQSPAILSVSPGEGVSFSCRASQSIGTSIHWYQQRTNGSPRLLIKYASESISGIPSRFSGSGSGTDFTLRINSLESEDIADYYCQQSNSWPLTFGAGTKLELK
modifications: Murine SC17.28 VH; Murine SC17.28 VL
notes: murine anti-SEZ6 antibody
B3: SC17.45: murine anti-SEZ6 antibody (antibody, V domains shown)
VH: QVQLQQPGSVLVRPGDSVKLSCKASGYTFTSYWMHWVKQSPGQGLEWIGEIHPHSGSTNYNEKFKGKATLTVDTSSSTAYVDLSSLTSEDSAVYYCVGGHYDYWGQGTTLTVSS
VL: ENVLTQSPAIMSASPGEKVTMTCSASSSVNYMYWYQQKSSTSPKLWIYDTSKLTSGVPGRFSGSGSGNSYSLTISNMEAEDVATYYCFQGSGYPLTFGSGTKLEIK
modifications: Murine SC17.45 VH; Murine SC17.45 VL
notes: murine anti-SEZ6 antibody
B4: SC17.36: murine anti-SEZ6 antibody (antibody, V domains shown)
VH: EVQLQESGPSLVKPSQSQSLTCSVTGDSITSDYWNWIRKFPGKKVEYMGYINYSGSTYYNPSLKSRISITRDTSKNQYYLQLNSVTSEDTATYYCARTSYYNKFLPFAYWGQGTLVTVSA
VL: QIVLTQSPALMSASPGEKVTMTCSASSSVSYMYWYQQKPRSSPKPWIYLTSNLASGVPARFSGSGSGTSYSLTISSMEAEDAATYYCQQWSSNPPTFGGGTKLEIK
modifications: Murine SC17.36 VH; Murine SC17.36 VL
notes: murine anti-SEZ6 antibody
B5: SC17.4: murine anti-SEZ6 antibody (antibody, V domains shown)
VH: QIQLVQSGPELKKPGETVKISCKASGYTFTDYSMHWVKQAPGKGLKWLGWINTETGEPTYSEDFKGRFAFSLETSASTAYLQINNLKNEDTATYFCVKNKGWFAYWGQGTLVTVSA
VL: DIKMTQSPSSMYASLGERVTITCKASQDINSYLTWFQQKPGKSPKTLIYRANRLIDGVPSRFSGSGSGQDYSLTISSLDYEDMGIYYCLQYDDFPWTFGGGTKLEIK
modifications: Murine SC17.4 VH; Murine SC17.4 VL
notes: murine anti-SEZ6 antibody
B6: SC17.156: murine anti-SEZ6 antibody (antibody, V domains shown)
VH: QVTLKESGPGILQPSQTLSLTCSFSGFSLSTSGMGVSWIRKTSGKGLEWLAHIFWDDDKWYNPSLKSRLTISKATSSNQVFLILTSVDTADTATYYCATFYGLYFAYWGQGTTLTVSS
VL: DVVMTQSPLSLPVSLGDQASISCRSSQSIVHSNGNTYLEWYLQKPGQSPKLLIYKVSNRFSGVPDRFSGSGSGTDFTLKISRVEAEDLGVYYCFQGSHVPPTFGGGTKLEIK
modifications: Murine SC17.156 VH; Murine SC17.156 VL
notes: murine anti-SEZ6 antibody
B7: SC17.166: murine anti-SEZ6 antibody (antibody, V domains shown)
VH: EVQLQQSGPELMKPGASVKMSCKASGYIFTDYNMHWVKQNQGKSLEWIGEVNPNTGGIGYNQKFKGKATLTVDKSSSTAYMDLRSLTSEDSAVYYCARDGNYCFDYWGQGTTLTVSS
VL: B1 VL with V29I, P54A, S76N, A99G, L105I
modifications: Murine SC17.166 VH; Murine SC17.166 VL
notes: murine anti-SEZ6 antibody
B8: SC17.102: murine anti-SEZ6 antibody (antibody, V domains shown)
VH: EVQLQQSGPELMKPGASVKMSCKASGDTFTDYNIHWVKQNQGKSLEWIGEVNPNIGGIGYNQKFKGKATLTVDKSSSTAYMELRSLTSEDSAVYYCAMGRWYFDVWGAGTTVTVSS
VL: B1 VL with P54A, A59P, S64R, Q89H, T93N, L105M
modifications: Murine SC17.102 VH; Murine SC17.102 VL
notes: murine anti-SEZ6 antibody
B9: SC17.121: murine anti-SEZ6 antibody (antibody, V domains shown)
VH: EVQLQQSGPELMKPGASVKMSCKASGYTFTDHNIHWVKQHQGKSLEWIGEINPNTGGTGYNQKFQGKATMTVDKSSSTAYMELRSLTSEDSAVYYCVRGLYFFDYWGQGTTLTVSS
VL: B1 VL with P54A, A79T, S92N, A99S, G100V, L105I
modifications: Murine SC17.121 VH; Murine SC17.121 VL
notes: murine anti-SEZ6 antibody
B10: SC17.191: murine anti-SEZ6 antibody (antibody, V domains shown)
VH: EVQLQQSGPELMKPGASVKMSCKASGYTFTDYNMHWVKQNQGKSLEWIGEINPNTGGTGYNQKFKDKATLTVDKSSSTAYMELRSLTSEDSAVYYCARIPSLRRYYFDYWGQGTTLTVSS
VL: B1 VL with P54A, S62T, T93S
modifications: Murine SC17.191 VH; Murine SC17.191 VL
notes: murine anti-SEZ6 antibody

Test system: rat SEZ6
Sequence (as listed by the source): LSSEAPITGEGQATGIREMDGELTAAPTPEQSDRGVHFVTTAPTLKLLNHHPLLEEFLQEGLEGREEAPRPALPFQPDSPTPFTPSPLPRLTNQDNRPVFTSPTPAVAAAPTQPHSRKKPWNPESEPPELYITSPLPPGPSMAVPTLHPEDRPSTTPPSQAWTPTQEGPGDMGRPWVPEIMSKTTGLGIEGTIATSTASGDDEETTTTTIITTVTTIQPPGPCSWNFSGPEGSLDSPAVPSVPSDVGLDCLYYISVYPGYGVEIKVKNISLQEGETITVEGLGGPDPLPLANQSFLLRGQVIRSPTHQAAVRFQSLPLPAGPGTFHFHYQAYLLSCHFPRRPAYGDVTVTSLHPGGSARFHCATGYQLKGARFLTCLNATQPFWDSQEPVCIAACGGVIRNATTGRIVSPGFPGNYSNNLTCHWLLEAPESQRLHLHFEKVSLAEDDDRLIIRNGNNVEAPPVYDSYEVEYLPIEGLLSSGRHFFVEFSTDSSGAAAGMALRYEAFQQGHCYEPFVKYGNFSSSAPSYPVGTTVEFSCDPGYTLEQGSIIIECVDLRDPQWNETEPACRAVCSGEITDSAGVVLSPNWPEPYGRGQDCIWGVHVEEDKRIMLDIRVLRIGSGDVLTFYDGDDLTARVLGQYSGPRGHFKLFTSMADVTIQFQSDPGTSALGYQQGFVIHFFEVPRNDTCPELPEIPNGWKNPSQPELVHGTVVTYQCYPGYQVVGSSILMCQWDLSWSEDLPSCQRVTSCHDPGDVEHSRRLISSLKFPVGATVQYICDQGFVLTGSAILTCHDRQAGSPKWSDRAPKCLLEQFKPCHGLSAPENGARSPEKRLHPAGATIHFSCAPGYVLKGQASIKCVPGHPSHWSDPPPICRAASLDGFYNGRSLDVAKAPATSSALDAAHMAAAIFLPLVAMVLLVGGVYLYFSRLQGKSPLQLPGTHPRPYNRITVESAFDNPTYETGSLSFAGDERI
Experiment: Flow cytometry cross reactivity, RIN-m5F cells
Format: binding
Conditions: 5 μg/mL antibody
Procedure: (§1) In this regard flow cytometry was performed using a FACSCanto II as per the manufacturer's instructions in order to confirm that selected SC17 antibody modulators can immunospecifically associate with human SEZ6 and to determine whether the same modulators cross-react with cynomolgus, rat and/or murine SEZ6 in addition to SEZ6L and SEZ6L2. More particularly modulators were tested for cross reactivity to murine SEZ6 and rat SEZ6 by flow cytometry against Neuro2a (ATCC Cat # CCL131), and RIN-m5F (ATCC cat # CRL-11605) cell lines which express mouse SEZ6 and rat SEZ6, respectively. For examining cross reactivity to cynomolgus SEZ6, yeast displaying the extracellular domain of cynomolgus SEZ6 (Boder et al, 1997) were used for flow cytometry analysis.
(§2) Briefly 1×10^5 cells per well of Neuro2a, RIN-5mF, or yeast displaying cynomolgus SEZ6 cells were incubated for 30 minutes with 50 μL PBS (2% FCS) buffer with 5 μg/mL antibody. Cells were washed twice with the same buffer and then incubated with 50 μL per sample DyLight 649 labeled goat-anti-mouse IgG, Fc fragment specific secondary diluted 1:200 in PBS buffer. After incubating for 15 minutes cells were washed twice with the PBS buffer and re-suspended in the same with DAPI for flow cytometry analysis of Neuro2a and Rin-m5F or buffer without DAPI for flow cytometric analysis of yeast cells with cSEZ6.

| Molecule | cross reactivity to rat SEZ6 |
| --- | --- |
| B1 | cross reactive |
| B2 | cross reactive |

Test system: cynomolgus SEZ6
Experiment: Flow cytometry cross reactivity, yeast displaying extracellular domain of cynomolgus SEZ6
Format: binding
Conditions: 5 μg/mL antibody
Procedure: as §1, §2

| Molecule | cross reactivity to cynomolgus SEZ6 |
| --- | --- |
| B3 | cross reactive |
| B1 | cross reactive |
| B4 | cross reactive |

Target: T1, SEZ6L2 (Homo sapiens, UniProt Q6UXD5, INS830AYEELLDNRKLEV)
T1 construct: IgK signal peptide (N, cleaved yes); made in house; host or cells: HEK-293T or CHO-S
T1 sequence (Q6UXD5 with tags, fused parts or gaps with the stated changes): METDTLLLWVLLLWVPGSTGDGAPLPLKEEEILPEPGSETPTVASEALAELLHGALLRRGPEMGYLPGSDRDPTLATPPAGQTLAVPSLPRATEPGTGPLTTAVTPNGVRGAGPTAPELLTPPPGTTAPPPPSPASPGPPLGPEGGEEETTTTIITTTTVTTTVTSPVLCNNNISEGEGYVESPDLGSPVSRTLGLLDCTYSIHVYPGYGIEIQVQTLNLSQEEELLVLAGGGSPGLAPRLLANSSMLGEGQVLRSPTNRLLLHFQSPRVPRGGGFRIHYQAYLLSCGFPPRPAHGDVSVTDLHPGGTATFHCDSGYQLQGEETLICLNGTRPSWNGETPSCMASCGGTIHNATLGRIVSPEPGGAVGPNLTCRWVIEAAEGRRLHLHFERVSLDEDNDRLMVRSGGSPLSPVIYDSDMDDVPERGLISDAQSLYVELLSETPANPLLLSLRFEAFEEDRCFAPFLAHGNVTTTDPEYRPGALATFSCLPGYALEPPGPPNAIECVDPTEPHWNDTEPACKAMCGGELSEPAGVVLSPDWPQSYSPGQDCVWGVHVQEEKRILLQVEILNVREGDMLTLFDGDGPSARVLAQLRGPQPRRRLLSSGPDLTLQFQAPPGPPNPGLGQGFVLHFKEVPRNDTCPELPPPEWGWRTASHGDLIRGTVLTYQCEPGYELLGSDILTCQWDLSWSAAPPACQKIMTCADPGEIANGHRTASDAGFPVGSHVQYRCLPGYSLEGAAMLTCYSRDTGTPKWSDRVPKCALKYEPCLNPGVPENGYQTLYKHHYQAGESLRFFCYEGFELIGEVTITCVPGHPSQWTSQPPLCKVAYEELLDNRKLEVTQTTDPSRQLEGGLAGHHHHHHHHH
Experiment: ELISA cross reactivity to family member SEZ6L2
Format: binding
Set-up: key to binds SEZ6 family member SEZ6L2 (dagger): *: antibodies that bind SEZ6 family members SEZ6L and SEZ6L2 are designated with an asterisk and/or a dagger, respectively; †: antibodies that bind SEZ6 family members SEZ6L and SEZ6L2 are designated with an asterisk and/or a dagger, respectively
Conditions: ELISA, antibody 1 μg/mL
Procedure: To determine cross reactivity to family member proteins, SEZ6L and SEZ6L2, an ELISA-based assay was used. Plates were coated with SEZ6, SEZ6L, or SEZ6L2 proteins at 0.2 μg/mL in PBS overnight. After washing with PBS containing 0.05% (v/v) Tween 20 (PBST), the wells were blocked with 2% (w/v) BSA in PBS (PBSA), 100 μL/well for 1 hour at room temperature. Antibody was then added at 1 μg/mL in 100 μL PBSA for 1 hour at room temperature. After washing with PBST, 100 μL/well HRP-labeled goat anti-mouse IgG diluted 1:2,000 in PBSA for 1 hour at room temperature. The plates were washed and 100 μL/well of the TMB substrate solution (Thermo Scientific 34028) was added for 15 minutes at room temperature. After developing, an equal volume of 2M H2SO4 was added to stop substrate development and analyzed by spectrophotometer at OD 450. […] As discussed above, such pan-SEZ6 antibodies are compatible with the teachings herein and may be used in conjunction with the disclosed methods.

| cross reactivity with SEZ6L2 | Molecule |
| --- | --- |
| cross-reactive | B2 |

Same assay, conditions: mark in Table 5

| Molecule | binds SEZ6 family member SEZ6L2 (dagger) |
| --- | --- |
| B2 | SC17.6^†, SC17.28^†, SC17.103, SC17.109, SC17.119, |

Target: T2, SEZ6 ECD (Homo sapiens, UniProt Q53EL9)
T2 construct: SEZ6 extracellular domain (amino acids 1-904); expressed in transfected cells; host or cells: yeast (surface display, Cochran et al. protocol)
T2 sequence (Q53EL9 20-923): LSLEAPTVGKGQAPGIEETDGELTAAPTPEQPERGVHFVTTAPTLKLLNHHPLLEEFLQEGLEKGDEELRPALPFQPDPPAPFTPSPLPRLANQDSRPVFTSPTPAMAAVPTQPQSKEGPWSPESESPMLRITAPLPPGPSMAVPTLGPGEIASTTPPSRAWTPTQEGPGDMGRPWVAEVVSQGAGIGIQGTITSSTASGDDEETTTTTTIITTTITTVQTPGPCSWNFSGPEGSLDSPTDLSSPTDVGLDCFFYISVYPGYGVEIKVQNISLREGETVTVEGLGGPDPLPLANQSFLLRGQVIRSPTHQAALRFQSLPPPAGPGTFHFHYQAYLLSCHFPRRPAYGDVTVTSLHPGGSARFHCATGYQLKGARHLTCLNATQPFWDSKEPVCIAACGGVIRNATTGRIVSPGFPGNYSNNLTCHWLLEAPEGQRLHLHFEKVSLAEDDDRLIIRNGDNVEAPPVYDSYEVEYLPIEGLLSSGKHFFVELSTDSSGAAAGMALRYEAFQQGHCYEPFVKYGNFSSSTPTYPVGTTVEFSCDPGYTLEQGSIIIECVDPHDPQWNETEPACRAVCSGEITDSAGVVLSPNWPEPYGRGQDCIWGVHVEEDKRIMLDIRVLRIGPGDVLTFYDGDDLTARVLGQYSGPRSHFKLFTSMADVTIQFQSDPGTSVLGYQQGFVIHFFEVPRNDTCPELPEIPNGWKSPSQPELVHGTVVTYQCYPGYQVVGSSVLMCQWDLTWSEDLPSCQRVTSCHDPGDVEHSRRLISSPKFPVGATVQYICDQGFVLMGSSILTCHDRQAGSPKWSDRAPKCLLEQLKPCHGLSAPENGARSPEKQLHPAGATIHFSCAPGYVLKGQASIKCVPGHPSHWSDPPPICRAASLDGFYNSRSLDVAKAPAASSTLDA
Experiment: Fine epitope mapping (phage display peptide library or yeast-displayed SEZ6 ECD mutants)
Format: binding
Conditions: epitope conformational (discontinuous) or linear
Procedure: Epitopes were classified either as conformational (i.e. discontinuous) or linear. Yeast displaying the SEZ6 ECD construct was heat treated for 30 minutes at 80° C. in order to denature the antigen, washed twice in ice-cold PBSA and then subjected to the same staining protocol and flow cytometry analysis as described above. Antibodies that bound to both the denatured and native yeast were classified as binding to a linear epitope, whereas antibodies that bound native yeast but not denatured yeast were classified as conformationally specific.
Fine epitope mapping was further performed on selected antibodies to determine the specific amino acids to which they bound. Antibodies that bound to a linear epitope were mapped using the Ph.D.-12 phage display peptide library kit (New England Biolabs E8110S). The antibody selected for epitope mapping was coated onto a Nunc MaxiSorp tube (Nunc) at 50 μg/mL in 3 mL 0.1 M sodium bicarbonate solution, pH 8 and incubated overnight. The tube was blocked with 3% BSA solution in bicarbonate solution. Then, 10^11 input phage in PBS+0.1% Tween-20 was allowed to bind, followed by ten consecutive washes with 0.1% Tween-20 to wash away non-binding phage. Remaining phage were eluted with 1 mL 0.2 M glycine for 10 minutes at room temperature with gentle agitation, followed by neutralization with 150 μL 1 M Tris-HCl pH 9. Eluted phage were amplified and panned again with 10^11 input phage, using 0.5% Tween-20 during the wash steps to increase selection stringency. DNA from 24 plaques of the eluted phage from the second round was isolated using the Qiaprep M13 Spin kit (Qiagen) and sequenced. Binding of clonal phage was confirmed using an ELISA assay, where the mapped antibody or a control antibody was coated onto an ELISA plate, blocked, and exposed to each clone phage. Phage binding was detected using horseradish peroxidase conjugated anti-M13 antibody (GE Healthcare), and the 1-Step Turbo TMB ELISA solution (Pierce). Phage peptide sequences from specifically binding phage were aligned using Vector NTI (Life Technologies) against the antigen ECD peptide sequence to determine the epitope of binding.
Selected antibodies that bound to a discontinuous epitope were mapped using the technique described by Chao et al. (2007). Libraries of SEZ6 ECD mutants were generated with error prone PCR using nucleotide analogues 8-oxo-2′deoxyguanosine-5′-triphosphate and 2′-deoxy-p-nucleoside-5′triphosphate (both from TriLink Bio) for a target mutagenesis rate of one amino acid mutation per clone. These were transformed into a yeast display format. Using the technique described above for domain-level mapping, the library was stained for c-myc and antibody binding at 50 nM. […] These clones were re-grown, and subjected to another round of FACS sorting for loss of binding to the target antibody. Using the Zymoprep Yeast Plasmid Miniprep kit (Zymo Research), individual ECD clones were isolated and sequenced. Where necessary, mutations were reformatted as single-mutant ECD clones using the Quikchange site directed mutagenesis kit (Agilent).
Individual ECD clones were next screened to determine whether loss of binding was due to a mutation in the epitope, or a mutation that caused misfolding. Mutations that involved cysteine, proline, and stop codons were automatically discarded due to the high likelihood of a misfolding mutation. Remaining ECD clones were then screened for binding to a non-competing, conformationally specific antibody. ECD clones that lost binding to non-competing, conformationally specific antibodies were concluded to contain misfolding mutations, whereas ECD clones that retained equivalent binding as wild type SEZ6 ECD were concluded to be properly folded. Mutations in the ECD clones in the latter group were concluded to be in the epitope. […]

| Discontinuous | Molecule |
| --- | --- |
| No | B5 |
| Yes | B6 |
| Yes | B1 |
| Yes | B7 |
| Yes | B8 |
| Yes | B9 |
| Yes | B10 |
| Yes | B4 |

Source: patent US9993566B2, “SEZ6 modulators and methods of use” (AbbVie Stemcentrx LLC, priority 2013, dated 2018)
